Source: article PMC3474606

Tests used:
[1] = target: recombinant gp120 from HIV-1(ADA) strain (HIV-1 (ADA)); experiment: ELISA
GRFT D30A (red algae) = GRFT D30A (red algae) (UniProt P84801); experiment: AUC
[2] = target: recombinant gp120 from HIV-1(IIIB) strain, glycosylated (HIV-1 (IIIB)) (UniProt P04578); experiment: SPR
[3] = target: recombinant gp120 from HIV-1(ADA) strain (HIV-1 (ADA)); experiment: SPR
[4] = target: recombinant gp41 protein from HIV-1(HxB2) (HIV-1 (HxB2)) (UniProt P04578); experiment: SPR
GRFT D112A (red algae) = GRFT D112A (red algae) (UniProt P84801); experiment: AUC
[5] = target: wild-type griffithsin (GRFT) (red algae) (UniProt P84801); experiment: AUC
[6] = target: trimeric gp140 derived from HIV-1/JR-FL (HIV-1 (JR-FL)); experiment: SPR
[7] = target: monomeric gp120 derived from HIV-1/JR-FL (HIV-1 (JR-FL)); experiment: SPR

GRFT D30A (from UniProt P84801 1-121) (natural protein)
fold reduction in binding against wild-type GRFT [1]: 10 fold | stoichiometry N (GRFT D30A (red algae)): 2 | Kd [2]: 0.156 nM | Kd [3]: 0.123 nM

GRFT D70A (from UniProt P84801 1-121) (natural protein)
fold reduction in binding against wild-type GRFT [1]: 10 fold | Kd [2]: 0.245 nM | Kd [4]: 0.165 nM | Kd [3]: 0.194 nM

GRFT D112A (from UniProt P84801 1-121) (natural protein)
fold reduction in binding against wild-type GRFT [1]: 10 fold | stoichiometry N (GRFT D112A (red algae)): 2 | Kd [2]: 0.142 nM | Kd [4]: 0.131 nM | Kd [3]: 0.122 nM

wild-type griffithsin (GRFT) (from UniProt P84801 1-121) (natural protein)
stoichiometry N [5]: 2 | Kd [6]: 0.152 nM | Kd [2]: 0.0727 nM | Kd [4]: 0.0449 nM | Kd [7]: 0.111 nM | Kd [3]: 0.0732 nM
